Test results: paper PMC8534003 (2021)
Where no end group is shown, it is not given here. The star is where a group is joined. Biotin = O=C1N[C@H]2[C@H](CS[C@H]2CCCCC(=O)*)N1

Molecular target: human recombinant FGF-2 (human, UniProt P09038 143-288)
Sequence (P09038 143-288): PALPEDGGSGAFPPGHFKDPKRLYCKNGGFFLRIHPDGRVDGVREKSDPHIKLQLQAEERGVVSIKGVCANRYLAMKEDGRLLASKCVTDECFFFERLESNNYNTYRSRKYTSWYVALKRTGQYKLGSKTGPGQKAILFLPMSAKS

B1: biotinylated CXCL9(74-103) (peptide)
peptide: Biotin-KKKQKNGKKHQKKKVLKVRKSQRSRQKKTT
  koff: 0.00207 s⁻¹
